Results as given in patent US20130251728A1.

What was measured:
[1] = target: rat GCGR (full-length, on transiently transfected HEK293 reporter cells) (rat) (UniProt P30082); test: cell-based or functional assay
[2] = target: mouse GCGR (full-length, on HEK293 reporter cells) (mouse) (UniProt Q61606); test: cell-based or functional assay
mouse GCGR (full-length, on HEK293 reporter cells) (mouse), sequence (Q61606 27-485 limits assumed): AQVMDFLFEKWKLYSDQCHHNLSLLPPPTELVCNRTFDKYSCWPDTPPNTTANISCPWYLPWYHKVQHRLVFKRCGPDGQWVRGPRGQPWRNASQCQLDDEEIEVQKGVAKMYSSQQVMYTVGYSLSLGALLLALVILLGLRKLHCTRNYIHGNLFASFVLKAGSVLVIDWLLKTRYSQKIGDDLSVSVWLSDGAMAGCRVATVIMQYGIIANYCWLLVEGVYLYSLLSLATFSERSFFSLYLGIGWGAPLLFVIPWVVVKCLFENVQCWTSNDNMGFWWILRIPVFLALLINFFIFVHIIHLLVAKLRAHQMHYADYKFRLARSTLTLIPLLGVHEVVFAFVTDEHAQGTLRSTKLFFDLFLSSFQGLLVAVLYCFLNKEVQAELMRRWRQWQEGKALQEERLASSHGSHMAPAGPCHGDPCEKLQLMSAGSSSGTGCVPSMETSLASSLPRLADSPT

rat GCGR (full-length, on transiently transfected HEK293 reporter cells) (rat), sequence (P30082 27-485 limits assumed): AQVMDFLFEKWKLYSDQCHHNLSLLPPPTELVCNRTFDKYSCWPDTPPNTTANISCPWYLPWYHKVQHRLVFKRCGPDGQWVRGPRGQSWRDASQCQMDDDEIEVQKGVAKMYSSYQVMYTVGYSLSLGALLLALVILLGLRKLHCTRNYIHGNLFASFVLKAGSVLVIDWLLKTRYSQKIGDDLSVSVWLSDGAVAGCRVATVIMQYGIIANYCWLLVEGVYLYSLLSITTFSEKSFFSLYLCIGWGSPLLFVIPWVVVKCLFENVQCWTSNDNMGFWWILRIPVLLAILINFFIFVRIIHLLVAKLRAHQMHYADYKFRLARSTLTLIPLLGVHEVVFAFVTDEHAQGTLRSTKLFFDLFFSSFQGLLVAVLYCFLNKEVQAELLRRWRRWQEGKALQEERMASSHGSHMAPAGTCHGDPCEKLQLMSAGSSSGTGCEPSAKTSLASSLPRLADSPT

EC50, luciferase activity in HEK293 reporter cells transfected with rat GCGR [1]: 0.252 nM
EC50, luciferase activity in HEK293/mGCGR reporter cells [2]: 0.083 nM
Substance: glucagon (GCG) (from UniProt P01275 53-81) (ligand)
